± gives the standard deviation of the averaged measurements.
Assay: total protein half-life in vivo (active degradation + dilution); higher = more stable protein
[1] = E. coli NCM3722 delta-clpP delta-lon delta-hslV, growth: N-lim chemostat, doubling time 6 h
[2] = E. coli NCM3722 delta-clpP, growth: N-lim chemostat, doubling time 6 h
[3] = E. coli NCM3722 delta-hslV, growth: N-lim chemostat, doubling time 6 h
[4] = E. coli NCM3722 delta-lon, growth: N-lim chemostat, doubling time 6 h
[5] = E. coli NCM3722 delta-smpB, growth: N-lim chemostat, doubling time 6 h
[6] = wild type E. coli NCM3722, growth: C-lim chemostat, doubling time 3 h
[7] = wild type E. coli NCM3722, growth: C-lim chemostat, doubling time 6 h
[8] = wild type E. coli NCM3722, growth: C-lim chemostat, doubling time 12 h
[9] = wild type E. coli NCM3722, growth: N-lim chemostat, doubling time 6 h
[10] = wild type E. coli NCM3722, growth: N-lim chemostat, doubling time 12 h
[11] = wild type E. coli NCM3722, growth: P-lim chemostat, doubling time 6 h
[12] = wild type E. coli NCM3722, growth: P-lim chemostat, doubling time 12 h

Row | Sequence | total protein half-life in vivo [1] [h] | total protein half-life in vivo [2] [h] | total protein half-life in vivo [3] [h] | total protein half-life in vivo [4] [h] | total protein half-life in vivo [5] [h] | total protein half-life in vivo [6] [h] | total protein half-life in vivo [7] [h] | total protein half-life in vivo [8] [h] | total protein half-life in vivo [9] [h] | total protein half-life in vivo [10] [h] | total protein half-life in vivo [11] [h] | total protein half-life in vivo [12] [h]
1 | MTVTTFSELELDESLLEALQDKGFTRPTAIQAAAIPPALDGRDVLGSAPTGTGKTAAYLLPALQHLLDFPRKKSGPPRILILTPTRELAMQVSDHARELAKHTHLDIATITGGVAYMNHAEVFSENQDIVVATTGRLLQYIKEENFDCRAVETLILDEADRMLDMGFAQDIEHIAGETRWRKQTLLFSATLEGDAIQDFAERLLEDPVEVSANPSTRERKKIHQWYYRADDLEHKTALLVHLLKQPEATRSIVFVRKRERVHELANWLREAGINNCYLEGEMVQGKRNEAIKRLTEGRVNVLVATDVAARGIDIPDVSHVFNFDMPRSGDTYLHRIGRTARAGRKGTAISLVEAHDHLLLGKVGRYIEEPIKARVIDELRPKTRAPSEKQTGKPSKKVLAKRAEKKKAKEKEKPRVKKRHRDTKNIGKRRKPSGTGVPPQTTEE | 5.75 ± 0.085 | 5.51 ± 0.25 | 4.72 ± 0.45 | 5.13 ± 0.37 | 4.237 ± 0.022 | 3.01 ± 0.26 | 5.47 ± 0.41 | 9.33 ± 0.45 | 4.2 ± 0.049 | 7.37 ± 0.27 | 4.18 ± 0.28 | 7.44 ± 0.14
2 | MDQIRLTHLRQLEAESIHIIREVAAEFSNPVMLYSIGKDSSVMLHLARKAFYPGTLPFPLLHVDTGWKFREMYEFRDRTAKAYGCELLVHKNPEGVAMGINPFVHGSAKHTDIMKTEGLKQALNKYGFDAAFGGARRDEEKSRAKERIYSFRDRFHRWDPKNQRPELWHNYNGQINKGESIRVFPLSNWTEQDIWQYIWLENIDIVPLYLAAERPVLERDGMLMMIDDNRIDLQPGEVIKKRMVRFRTLGCWPLTGAVESNAQTLPEIIEEMLVSTTSERQGRVIDRDQAGSMELKKRQGYF | 5.8 ± 1.9 | 3.7 ± 0.045 | 1.49 ± 0.57 | 1.35 ± 0.17 | 1.29 ± 0.12 | 1.58 ± 0.062 | 1.94 ± 0.21 | 2.88 ± 0.15 | 1.206 ± 0.0024 | 1.44 ± 0.29 | 1.46 ± 0.23 | 2.57 ± 0.54
3 | MATHFARGILTEGHLISVRLPSQCHQEARNIPPHRQSRFLASRGLLAELMFMLYGIGELPEIVTLPKGKPVFSDKNLPSFSISYAGNMVGVALTTEGECGLDMELQRATRGFHSPHAPDNHTFSSNESLWISKQNDPNEARAQLITLRRSVLKLTGDVLNDDPRDLQLLPIAGRLKCAHVNHVEALCDAEDVLVWSVAVTPTIEKLSVWELDGKHGWKSLPDIHSRANNPTSRMMRFAQLSTVKAFSPN [P0ADM8] | – | 4.2 ± 0.51 | 3.24 ± 1.1 | 2.271 ± 0.01 | 2.5 ± 0.27 | – | 3.36 ± 0.66 | 6.92 ± 0.22 | 2.12 ± 0.18 | 3.63 ± 0.21 | 3.22 ± 0.14 | 5.24 ± 0.93

Source: the supplement of paper PMC11246515
